How the values were obtained:
[1] = target: T1, pre-formed Aβ (1-40) amyloid fibrils (Homo sapiens, UniProt P05067); assay: Thioflavin T fluorometry, dissolution of pre-formed Aβ (1-40) amyloid fibrils; assay type: biochemical; settings: for dissolution of pre-formed Aβ amyloid fibrils: 25 μM fibrillized Aβ, 4 day incubation; for dose dependence of dissolution of pre-formed Aβ amyloid fibrils, in words: 16-125 nM laminin, 4 day incubation (FIG. 5)
T1 construct: 2 μg of Aβ (1-40)(Bachem Inc., Torrance, Calif. USA; Lot #WM365); purchased Bachem Inc., Torrance, Calif; Lot #WM365
T1 sequence (P05067 672-711 limits assumed): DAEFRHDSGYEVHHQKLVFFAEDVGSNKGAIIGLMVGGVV
Procedure: For this study, 1 mg of Aβ (1-40)(Bachem Inc., Torrance, Calif., USA; Lot #WM365) was dissolved in 1.0 ml of double distilled water (1 mg/ml solution) and then incubated at 37° C. for 1 week. 25 μM of fibrillized Aβ was then incubated at 37° C. in the presence or absence of laminin (from EHS tumor; Sigma Chemical Company, St. Louis, Mo., USA) at concentrations of 125 nM, 63 nM, 31 nM and 16 nM containing 150 mM Tris HCl, 10 mM NaCl, pH 7.0. Following a 4 day incubation, 50 μl aliquots were added to 1.2 ml of 100 μM Thioflavin T (Sigma Chemical Co., St. Louis, Mo.) in 50 mM NaPO4 (pH 6.0) for fluorometry readings as described in example 2.

[2] = target: T2, biotinylated Aβ (1-40) (Homo sapiens, UniProt P05067); assay: Aβ ligand blot of undigested and V8-, trypsin- or elastase-digested EHS laminin; assay type: binding; settings: 2 μM biotinylated Aβ (1-40), SDS-PAGE under non-reducing conditions
T2 construct: Aβ (1-40) was biotinylated according to the manufacturer's protocol (Pierce, Rockford, Ill.)
T2 sequence (P05067 672-711 limits assumed): as above
Procedure: For these experiments, Aβ (1-40) was biotinylated according to the manufacturer's protocol (Pierce, Rockford, Ill.). For the ligand studies, intact EHS laminin was left undigested, or digested with V8 or trypsin (Sigma Chemical Company, St. Louis, Mo., USA). More specifically, 2 μg of trypsin or V8 protease in 2 μl of 50 MM Tris-HCl buffer (pH 8.0) were added to 50 μl of laminin (50 μg)(in the same buffer) and incubated overnight at 37° C. The next day, 10 μl of protease-digested laminin (or undigested laminin) was mixed with 10 μl of 2× sodium dodecyl sulfate polyacrylamide gel electrophoresis (SDS-PAGE) sample buffer, and heated for 5 minutes in a boiling water bath. SDS-PAGE was performed according to the method of Laemmli (Laemmli, U.K. Nature 227:680-685, 1970), or according to the method of Schägger and Jagow (Schägger and Jagow, Anal. Biochem. 166:368-379, 1987) using a Mini-Protean II electrophoresis system (Biorad) with precast 4-15% Tris-Glycine or 10-20% tricine polyacrylamide gels, respectively, and under non-reducing conditions. Electrophoresis occurred at 200V for 45 minutes along with pre-stained molecular weight standards. After SDS-PAGE (10-20% tricine or 4-15% Tris-Glycine gels) was performed as described above, the separated laminin and its fragments (total protein of 10 μg/lane) were transferred to polyvinylidine difluoride membrane (PVDF) using a Mini transblot electrophoresis transfer cell (Biorad, Hercules, Calif., U.S.A.). Electrotransfer was performed at 100V for 2 hours. Following transfer, membranes were rinsed with methanol and dried. The fragment(s) of laminin involved in binding to Aβ were then detected by using biotinylated-Aβ (1-40), as described above. Blots were probed for 2 hours with 2 μM biotinylated Aβ (1-40) in TTBS. The membranes were then rinsed three times (10 seconds each) with TTBS, probed for 30 minutes with strepavidin alkaline phosphatase conjugate (Vectastain), rinsed again (as described above), and followed by the addition of an alkaline phosphatase substrate solution (Vectastain). Following color development, the reaction was stopped by flushing the membranes with double distilled water. In the next set of studies, we determined whether small fragment(s) of laminin generated by elastase digestion would bind to Aβ. […] For these experiments, Aβ (1-40) was biotinylated according to the manufacturer's protocol (Pierce, Rockford, Ill.). For the ligand studies, intact EHS laminin was left undigested, or digested with elastase (Sigma Chemical Company, St. Louis, Mo., USA). For elastase digestion, 2 μg of elastase in 8 μl of 50 mM Tris-HCl buffer (pH 8.0) was added to 50 μl of laminin (50 μg)(in the same buffer) and incubated for 1.5 hours or 2.5 hours at 37° C. In addition, as a control, 2 μg of elastase in 50 μl of 50 mM Tris-HCl buffer (pH 8.0) was incubated for 2.5 hours at 37° C. Following the appropriate incubation times as described above, 10 μl of each of the above incubations were mixed with 10 μl of 2× SDS-PAGE electrophoresis sample buffer, and heated for 5 minutes in a boiling water bath. SDS-PAGE was performed according to the method of Laemmli (Laemmli, Nature 227:680-685, 1970) using a Mini-Protean II electrophoresis system with precast 4-15% Tris-Glycine polyacrylamide gels, and under non-reducing conditions. Electrophoresis occurred at 200V for 45 minutes along with pre-stained molecular weight standards (Biorad). After SDS-PAGE was performed as described above, the separated laminin fragments were transferred to PVDF using a Mini transblot electrophoresis transfer cell (Millipore, Bedford, Mass., U.S.A.). Electrotransfer was performed at 100V for 2 hours. Following transfer, membranes were rinsed with methanol, dried and cut into two equal parts which were used for Aβ ligand blotting, or Coomassie blue staining and subsequent amino acid sequencing. The fragment(s) of laminin involved in binding to Aβ were then detected by using biotinylated-Aβ (1-40), as described above. […]

laminin: Engelbreth-Holm-Swarm (EHS) mouse tumor laminin (Sigma); 850 kDa basement membrane glycoprotein of A, B1 and B2 chains
dissolution of pre-formed Aβ amyloid fibrils ([1]; 16 nM laminin): 25% | dissolution of pre-formed Aβ amyloid fibrils ([1]; 31 nM laminin): 28% | dissolution of pre-formed Aβ amyloid fibrils ([1]; 63 nM laminin): 39% | dissolution of pre-formed Aβ amyloid fibrils ([1]; 125 nM laminin): 41% | dose dependence of dissolution of pre-formed Aβ amyloid fibrils, in words [1]: dissolution of pre-formed Alzheimer's disease amyloid fibrils in a dose-dependent manner | dose dependence of dissolution of pre-formed Aβ amyloid fibrils, in words ([1]; listed as Laminin): dose-dependent manner | interaction with biotinylated Aβ (1-40) on ligand blot, in words [2]: most prominent Aβ-interaction
